Measured values as given in patent publication US20160362487A1 (Regeneron, published 2016).

T1: human IL-33 (R&D Systems, #3625-IL-010/CF) (human, UniProt O95760 112-270)
T1 construct: Commercial recombinant protein; also called hIL-33; interleukin-33
T1 sequence (looked up): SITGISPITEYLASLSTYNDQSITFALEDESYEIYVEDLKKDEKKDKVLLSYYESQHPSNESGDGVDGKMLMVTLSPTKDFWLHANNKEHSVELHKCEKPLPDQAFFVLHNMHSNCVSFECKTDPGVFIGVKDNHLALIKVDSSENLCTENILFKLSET


Tests used:
[1] = target: T1, human IL-33 (R&D Systems, …); experiment: SPR 25C pH7.4, mAb captured; lower limit, kd fixed
Procedure: (§1) Equilibrium dissociation constants (KD values) for IL-33 binding to purified anti-IL-33 monoclonal antibodies were determined using a real-time surface plasmon resonance biosensor using a Biacore 4000 instrument. The Biacore sensor surface was first derivatized by amine coupling with either a polyclonal rabbit anti-mouse antibody (GE, # BR-1008-38) or with a monoclonal mouse anti-human Fc antibody (GE, # BR-1008-39) to capture anti-IL-33 monoclonal antibodies expressed with mouse or with human IgG4 constant regions, respectively. All Biacore binding studies were performed in 0.01M ADA pH 7.4, 0.15M NaCl, 3 mM EDTA, and 0.05% v/v Surfactant Tween-20 (ABS-ET running buffer). […] Association of either hIL-33 or MfIL-33-6His to the captured monoclonal antibody was monitored for 4 minutes and their dissociation in ABS-ET running buffer was monitored for 10 minutes. […] To achieve this, association of either hIL-33 or MfIL-33-6His to the captured monoclonal antibody was monitored for 4 minutes in ABS-ET running buffer. Following a 30 second dissociation of either hIL-33 or MfIL-33-6His in ABS-ET running buffer, ABS-ET pH6 buffer was injected for 3 minutes, and the analyte dissociation under the low-pH conditions was measured. […] Binding dissociation equilibrium constants (KD) and dissociative half-lives (t½) were calculated from the kinetic rate constants as: […]

[2] = target: T1, human IL-33 (R&D Systems, …); experiment: SPR 25C pH7.4, mAb captured; upper limit, kd fixed
Procedure: as §1

[3] = target: T1, human IL-33 (R&D Systems, …); experiment: SPR 25C pH7.4, mAb captured; no dissociation seen, kd fixed
Procedure: as §1

[4] = target: T2, pre-formed complex of hIL-33 and captured hST2-MMH (human, UniProt O95760 112-270); experiment: SPR Biacore T-200, 25C
T2 construct: Ligand-receptor complex on the sensor: hST2-MMH captured by anti-myc mAb and saturated with 100 nM hIL-33; also called hIL-33 pre-complexed with hST2-MMH
Procedure: The ability of anti-IL-33 antibodies to bind to a pre-formed complex of IL-33 with ST2 was tested using Biacore T-200 instrument equipped with a real-time surface plasmon resonance biosensor. The experiment was performed at 25° C. with a running buffer composed of 0.01M HEPES pH 7.4, 0.15M NaCl, 3 mM EDTA, and 0.05% v/v Surfactant Tween-20 (HBS-ET). […] The captured hST2-MMH surface was then saturated by injecting 100 nM of human IL-33 (hIL-33; R&D Systems, #3625-IL-010/CF) for 3 minutes followed by a 3 minute injection of a 100 nM solution of the anti-IL-33 monoclonal antibody. The real-time binding response was monitored during the entire course of the experiment, and the observed binding response at 3 minutes after injection of anti-IL-33 antibody to the pre-formed complex of hIL-33 and captured hST2-MMH was recorded and tabulated and shown in Table 7. No non-specific binding of anti-IL-33 monoclonal antibody to the anti-myc tag capture surface was observed.

Binder | t½ [1] [h] | Kd [2] [nM] | koff [3] [s⁻¹] | binding result [4]
H1M9566N (antibody, mouse IgG1, V domains shown, Human variable domains, mouse IgG1 Fc (H1M)) VH: EVQLLESGGDLVQPGGSLRLSCAASGFTFSSYAMSWVRQAPGKGLEWVSVISGSGSSTDYADSVKGRFTISRDNSRDTLHLQMNSLRAEDTAVYYCAKTFYYFYGLDVWGQGTTVTVSS VL: DIQMTQSPSSLSASLRDRVTITCRASQGISNYLAWYQQKPGKVPKVLIYAASTLQSGVPSRFSGSGSGTVFTLTISSLQTEDVATYYCQKYSSAPFTFGPGTKVDIK | ≥ 19.2 | ≤ 0.0788 | ≤ 1e-05 | –
H4H9662P (antibody, V domains shown, Human IgG4 Fc (H4H)) VH: EVQLVESGGGLVQPGGSLRLSCAASGFTFSSYALTWVRQAPGKGLEWVSFISGSGGRPFYADSVKGRFTISRDNSKNMLYLQMNSLRAEDTAIYYCAKSLYTTSWYGGFDSWGQGTLVTVSS VL: DIQMTQSPSSVSASVGDRVTITCRASQGVVSWLAWYQQKPGKAPKLLIYAASSLQSGVPSRFSGSGSGTDFTLTISSLQPEDFATYYCQQSNSFPFTLGPGTKVDIK | – | – | – | no binding (tested: 100 nM)
H4H9665P (antibody, human IgG4, V domains shown, Human IgG4 Fc (H4H)) VH: EVQLVESGGGLVQPGGSLRLSCAASGFTFSNYAMTWVRQAPGKGLEWVSTISGSGDNTYYADSVQGRFTISRGHSKNTLYLQMNSLRAEDTAVYYCAKPTYSRSWYGAFDFWGQGTMVTVSS VL: DIQMTQSPSSVSASVGDRVTITCRASQGISSWLAWYQQKPGKAPQLLIYAASRLQSGVPSRFWGSGSGTDFTLTISSLQPEDFATYYCQQANNFPFTFGPGTKVDIK | – | – | – | no binding (tested: 100 nM)
